Laboratory results taken from publication PMC6531468.

Experiments:
[1] = biological target: IMP3 KH3-4 (Homo sapiens) (UniProt O00425); test: SELEX; details: round 4
[2] = biological target: IMP3 KH1-2 (Homo sapiens) (UniProt O00425); test: SELEX; details: round 4
[3] = biological target: IMP3 full length (Homo sapiens) (UniProt O00425); test: SELEX; details: round 4
[4] = biological target: IMP3 RRM1-2 (Homo sapiens) (UniProt O00425); test: SELEX; details: round 2
[5] = biological target: IMP3 KH1-4 (Homo sapiens) (UniProt O00425); test: SELEX; details: round 4
[6] = biological target: IMP3 full length (Homo sapiens) (UniProt O00425); test: EMSA; details: Hill n 3.1; EMSA: 10 mM Tris-HCl pH 7.5, 150 mM NaCl, 0.5 mM EDTA, 0.5 mM DTT, 0.1% NP-40, 5% glycerol, tRNA+BSA, 5 nM RNA, 30 min RT then ice; ITC/NMR: 20 mM Bis-Tris …

IMP3 full length (Homo sapiens), sequence (O00425 whole entry): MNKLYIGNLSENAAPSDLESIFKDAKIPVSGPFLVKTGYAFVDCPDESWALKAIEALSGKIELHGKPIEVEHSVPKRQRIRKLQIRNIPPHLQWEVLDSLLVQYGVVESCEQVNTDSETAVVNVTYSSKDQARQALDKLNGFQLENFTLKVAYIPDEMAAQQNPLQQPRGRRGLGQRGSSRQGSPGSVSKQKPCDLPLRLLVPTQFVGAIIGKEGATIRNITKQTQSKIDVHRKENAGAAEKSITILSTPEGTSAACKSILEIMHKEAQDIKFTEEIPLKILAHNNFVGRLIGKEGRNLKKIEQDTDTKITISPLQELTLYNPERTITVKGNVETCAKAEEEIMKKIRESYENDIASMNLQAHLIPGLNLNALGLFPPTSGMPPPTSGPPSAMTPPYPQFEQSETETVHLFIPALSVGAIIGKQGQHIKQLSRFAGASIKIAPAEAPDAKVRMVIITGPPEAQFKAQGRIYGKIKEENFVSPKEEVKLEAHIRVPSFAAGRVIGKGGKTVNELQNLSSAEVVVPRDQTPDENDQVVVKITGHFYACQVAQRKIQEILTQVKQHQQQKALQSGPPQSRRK
IMP3 KH1-4 (Homo sapiens), sequence (O00425 164-579): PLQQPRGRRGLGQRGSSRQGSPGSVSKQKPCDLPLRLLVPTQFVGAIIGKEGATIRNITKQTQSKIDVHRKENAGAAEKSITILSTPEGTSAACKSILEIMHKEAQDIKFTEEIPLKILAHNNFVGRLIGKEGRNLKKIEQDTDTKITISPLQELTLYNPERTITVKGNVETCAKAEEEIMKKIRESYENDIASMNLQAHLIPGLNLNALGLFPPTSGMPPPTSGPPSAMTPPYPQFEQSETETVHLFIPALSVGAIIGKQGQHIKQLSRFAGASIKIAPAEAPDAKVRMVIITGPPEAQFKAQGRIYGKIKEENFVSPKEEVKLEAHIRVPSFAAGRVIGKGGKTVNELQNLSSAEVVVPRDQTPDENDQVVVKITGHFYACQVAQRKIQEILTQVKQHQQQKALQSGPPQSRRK
IMP3 RRM1-2 (Homo sapiens), sequence (O00425 1-163): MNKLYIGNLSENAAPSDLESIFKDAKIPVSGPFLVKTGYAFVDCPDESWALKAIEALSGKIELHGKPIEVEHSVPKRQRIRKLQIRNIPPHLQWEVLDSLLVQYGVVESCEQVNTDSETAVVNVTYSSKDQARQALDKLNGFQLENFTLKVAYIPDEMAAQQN
IMP3 KH3-4 (Homo sapiens), sequence (O00425 377-579): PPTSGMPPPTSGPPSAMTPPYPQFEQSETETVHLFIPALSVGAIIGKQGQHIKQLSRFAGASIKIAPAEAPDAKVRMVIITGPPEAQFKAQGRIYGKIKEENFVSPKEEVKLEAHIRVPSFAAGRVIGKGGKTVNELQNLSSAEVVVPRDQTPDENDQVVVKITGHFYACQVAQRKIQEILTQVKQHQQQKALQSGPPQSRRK
IMP3 KH1-2 (Homo sapiens), sequence (O00425 164-376): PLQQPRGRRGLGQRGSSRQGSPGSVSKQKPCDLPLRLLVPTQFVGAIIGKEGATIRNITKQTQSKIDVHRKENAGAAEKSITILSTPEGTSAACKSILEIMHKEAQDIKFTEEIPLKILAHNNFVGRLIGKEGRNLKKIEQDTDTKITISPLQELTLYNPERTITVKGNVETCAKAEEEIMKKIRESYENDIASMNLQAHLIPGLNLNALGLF

| Substance | binding signal (SELEX z-score, GST-corrected) [1] | binding signal (SELEX z-score, GST-corrected) [2] | binding signal (SELEX z-score, GST-corrected) [3] | binding signal (SELEX z-score, GST-corrected) [4] | binding signal (SELEX z-score, GST-corrected) [5] | also measured |
| --- | --- | --- | --- | --- | --- | --- |
| AAAUAA [6-mer AAATAA] | 3.39 |  |  |  |  |  |
| AACACA [6-mer AACACA] |  | 4.09 | 4.2 | 5.77 | 2.92 |  |
| AACAUA [6-mer AACATA] | 3.48 | 2.92 |  |  |  |  |
| AAUAAA [6-mer AATAAA] | 3.28 |  |  |  |  |  |
| AAUAAU [6-mer AATAAT] | 3.24 |  |  |  |  |  |
| AAUACA [6-mer AATACA] | 3.32 | 3.44 |  |  | 2.77 |  |
| AAUAUA [6-mer AATATA] | 3.67 |  |  |  |  |  |
| AAUCAU [6-mer AATCAT] |  |  |  | 3.82 |  |  |
| AAUGAA [6-mer AATGAA] | 3.19 |  |  |  |  |  |
| AAUUAA [6-mer AATTAA] | 3.41 |  |  |  |  |  |
| ACAACA [6-mer ACAACA] |  | 2.86 |  | 3.86 |  |  |
| ACAAUA [6-mer ACAATA] | 3.13 | 3.75 |  |  | 2.68 |  |
| ACACAA [6-mer ACACAA] |  |  |  | 4.19 |  |  |
| ACACAC [6-mer ACACAC] |  | 3.26 |  | 5.19 |  |  |
| ACACAU [6-mer ACACAT] |  | 3.81 | 3.99 | 4.49 | 3.27 |  |
| ACAUAA [6-mer ACATAA] | 3.74 | 3.61 |  |  | 2.92 |  |
| ACAUAU [6-mer ACATAT] | 3.36 | 2.92 |  |  | 2.88 |  |
| ACAUCA [6-mer ACATCA] |  |  | 4.02 | 3.94 |  |  |
| ACGGCA [6-mer ACGGCA] |  |  | 4.07 |  | 3.02 |  |
| AUAACA [6-mer ATAACA] | 4.15 | 3.77 |  |  | 3.19 |  |
| AUAAUA [6-mer ATAATA] | 3.54 |  |  |  |  |  |

| Substance | binding signal (SELEX z-score, GST-corrected) [1] | binding signal (SELEX z-score, GST-corrected) [2] | binding signal (SELEX z-score, GST-corrected) [3] | binding signal (SELEX z-score, GST-corrected) [4] | binding signal (SELEX z-score, GST-corrected) [5] | also measured |
| --- | --- | --- | --- | --- | --- | --- |
| AUACAU [6-mer ATACAT] |  | 3.08 |  |  | 2.8 |  |
| AUAUAA [6-mer ATATAA] | 3.89 |  |  |  |  |  |
| AUCACA [6-mer ATCACA] |  |  | 3.5 | 4.39 |  |  |
| CAAACA [6-mer CAAACA] |  |  |  | 3.91 |  |  |
| CAACAC [6-mer CAACAC] |  |  |  | 3.39 |  |  |
| CAAUCA [6-mer CAATCA] |  |  |  | 5.47 |  |  |
| CACAAC [6-mer CACAAC] |  |  |  | 3.4 |  |  |
| CACACA [6-mer CACACA] |  | 4.01 | 4.75 | 6.79 | 3.36 |  |
| CACAUA [6-mer CACATA] |  | 3.62 |  |  | 3.19 |  |
| CAUACA [6-mer CATACA] |  | 3.49 | 3.76 | 3.6 | 2.86 |  |
| CAUCAC [6-mer CATCAC] |  |  | 3.28 |  |  |  |
| CAUCAU [6-mer CATCAT] |  |  | 3.65 |  |  |  |
| CAUUCA [6-mer CATTCA] |  |  | 3.36 | 3.79 |  |  |
| CGGCAC [6-mer CGGCAC] |  |  | 4.28 |  | 2.99 |  |
| CGGCCA [6-mer CGGCCA] |  |  |  |  | 2.71 |  |
| GCACAC [6-mer GCACAC] |  |  | 3.25 |  |  |  |
| GGCACA [6-mer GGCACA] | 3.69 |  | 4.85 |  | 3.92 |  |
| GGCAUC [6-mer GGCATC] |  |  | 3.48 |  |  |  |
| GUCGGC [6-mer GTCGGC] |  |  | 3.3 |  |  |  |
| HMGA2 WT |  |  |  |  |  | Kd [6]: 13.1 nM |
| UACACA [6-mer TACACA] |  | 2.92 |  |  |  |  |
